Measured values: publication PMC3863792

T1: bio-d-mC5a (mirror-image mouse C5a) (mouse, UniProt P06684)
T1 sequence: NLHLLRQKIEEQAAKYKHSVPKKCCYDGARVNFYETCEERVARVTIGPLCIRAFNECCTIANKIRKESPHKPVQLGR


Biological target: T1, bio-d-mC5a (mirror-image mouse C5a)
Assay: competition

Binder | binding result
GCCUGAUGUGGUGUUGAAGGGUUGUUGGGUGUCGACGCACAGGC (structured_RNA) [274-C8-002] | binds
GCCUGAUGUGGUGGUGAAGGGUUGUUGGGUGUCGACGCACAGGC (structured_RNA) [274-C8-002-G14] | binds
